Publication PMC9598796 (2022)

Molecular target: biotinylated Stx2a holotoxin (Shiga toxin-producing E. coli (STEC), UniProt P09385;P09386)
Assay: BLI

Chain of biotinylated Stx2a holotoxin (P09385 23-319, chain 1 of 2): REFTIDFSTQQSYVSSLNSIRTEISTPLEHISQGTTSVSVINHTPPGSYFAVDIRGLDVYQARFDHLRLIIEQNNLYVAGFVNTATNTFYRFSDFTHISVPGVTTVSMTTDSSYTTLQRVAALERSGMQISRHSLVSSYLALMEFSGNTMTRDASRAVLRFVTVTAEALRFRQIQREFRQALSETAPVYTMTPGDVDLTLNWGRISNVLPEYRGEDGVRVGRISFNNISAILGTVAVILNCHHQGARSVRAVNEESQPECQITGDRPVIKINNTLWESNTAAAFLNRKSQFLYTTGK
Chain of biotinylated Stx2a holotoxin (P09386 20-89, chain 2 of 2): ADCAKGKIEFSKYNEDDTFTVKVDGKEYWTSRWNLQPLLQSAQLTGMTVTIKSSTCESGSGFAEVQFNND

B1: dimeric DARPin SD5 (#3-SHT) (designed binder)
chain: GKKLLEAARAGQDDEVRILMANGADVNACDSNGRTPLHLAAVRGHLEIVEVLLKNGADVNAWDVIGKTPLHLAADGGHLEIVEVLLKNGADVNAWDLIGRTPLHLAALDGHLEIVEVLLEHGADVNAYDRPGHTPLHLAARRGHLEIVEVLLKYGADVNAQDKFGKTAFDISIDNGNEDLAEILQGGGGSGGGGSGGGGSGGGGSGKKLLEAARAGQDDEVRILVANGADVNAGDPFGFTPLHLAALYGHLEIVEVLLKNGADVNAHEEYGFTPLHLAAVVSHMEIVEVLLNNGADVNARDNQGGSPLHLASHTGHLEIVEVLLKQGADVNAQDKFGKTAYDISIDIGNEDLAEILQ
With B1 the koff was 0.0126 s⁻¹.

B2: DARPin #3 (designed binder)
chain: GKKLLEAARAGQDDEVRILMANGADVNACDSNGRTPLHLAAVRGHLEIVEVLLKNGADVNAWDVIGKTPLHLAADGGHLEIVEVLLKNGADVNAWDLIGRTPLHLAALDGHLEIVEVLLEHGADVNAYDRPGHTPLHLAARRGHLEIVEVLLKYGADVNAQDKFGKTAFDISIDNGNEDLAEILQ
B2 showed a koff of 0.0438 s⁻¹.
